US6881404

Molecular target: T1, P-selectin glycoprotein ligand-1 (UniProt Q14242)
T1 sequence: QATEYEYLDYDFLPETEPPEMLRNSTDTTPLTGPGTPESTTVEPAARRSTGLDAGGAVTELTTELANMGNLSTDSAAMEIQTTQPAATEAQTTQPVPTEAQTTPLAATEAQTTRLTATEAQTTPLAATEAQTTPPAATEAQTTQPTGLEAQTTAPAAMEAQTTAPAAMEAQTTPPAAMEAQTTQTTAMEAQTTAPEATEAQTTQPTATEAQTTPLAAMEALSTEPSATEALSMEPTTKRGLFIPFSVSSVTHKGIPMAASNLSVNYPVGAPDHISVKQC

mocarhagin purified from the venom of the Mozambiquan spitting cobra, Naja mossambica mossambica
proteolytic cleavage of PSGL-1: Mocarhagin cleaves a ten amino acid peptide from the mature N-terminus of PSGL-1 and abolishes the ability of PSGL-1 to bind P-selectin
